3 molecules from US20220204996A1 can be followed below.

Experiment [1] has as its target PSI purified from WT^H6 (Chlamydomonas reinhardtii) (UniProt P12154). Kind of experiment: cell-based or functional assay.
Experiment [2] addresses PSI-HydA complex of the ΨH1 strain (hydA1-1 hydA2-1 [psaC-hydA2]) (Chlamydomonas reinhardtii) (UniProt P12154). In words: cell-based or functional assay.
Experiment [3] has as its target PSI-HydA complex purified from ΨH1^H6 (Chlamydomonas reinhardtii) (UniProt P12154). In words: cell-based or functional assay.
Experiment [4] has the same target. In words: immunoblot of isolated PSI particles loaded on equal P700.
For experiment [5], the target named is PSI-HydA complex of the ΨH1 strain (hydA1-1 hydA2-1 [psaC-hydA2]) (Chlamydomonas reinhardtii) (UniProt P12154). In words: cell-based or functional assay. The source holds these as a separate data set.
Substrate in experiment [6]: PSI purified from the hydA strain (hydA1-1 hydA2-1) (Chlamydomonas reinhardtii) (UniProt P12154)
In words: cell-based or functional assay.

On to “ferredoxin (Fd) (from UniProt P07839 33-126)”, for which the NADP+ photoreduction rate (coupled assay with Fd and FNR) (NADPH s^-1 per PSI) in experiment [1] was found to be 1.57. Besides, the rate of H2 production in the dark (GC-TCD, ΨH1 culture) (nmol H2 h^-1 (mg Chl)^-1) in experiment [2] stood at 330. In experiment [3], the NADP+ photoreduction rate (coupled assay with Fd and FNR) (NADPH s^-1 per PSI) turned out to be 0.77; the ability of PSI-HydA to reduce algal Fd (in a coupled assay) turned out to be 50%.

B1: PsaD (protein, Chlamydomonas reinhardtii, UniProt Q39615 36-196, looked up)
chain: EAEAAPAAAKKAAEKPAWTVPTLNPDTPSPIFGGSTGGLLRKAQTEEFYVITWEAKKEQIFEMPTGGAAIMRQGPNLLKFGKKEQCLALTTQLRNKFKLTPCFYRVFPDGKVQYLHPADGVYPEKVNAGRVGANQNMRRIGQNVNPIKVKFSGRMMSPAEI
As to B1, the ratio of anti-PsaD cross-reactive bands (PSI : PSI-HydA) (ratio to WT PSI) in experiment [4] stood at 1.02.

B2: Recombinant Synechococcus sp. PCC7002 flavodoxin (protein, UniProt P31158 2-170, looked up)
chain: SKIGLFFGTQTGNTEELAQAIQAAFGGSDIVELFDVAEVDIEALRDFDQLIIGCPTWNVGELQSDWEALYDDLDDVDFSGKTIAYFGAGDQVGYADNFQDAMGVLEEKITSLGGKTVGQWPTAGYDHSESKAERDGKFVGLAIDEDNQPELTAERIQAWVAQLKPAFGL
Turning to B2, in experiment [5], the Flavodoxin photoreduction turnover rate was determined as 0.088 s⁻¹ and the light-driven reduction of cyanobacterial flavodoxin, drop against PSI was determined as 9 fold. Moreover, the Flavodoxin photoreduction turnover rate in experiment [6] was found to be 0.77 s⁻¹.
